The target of test [1] is TMEM16A-GFP fusion protein on HEK293 stable cells (UniProt Q5XXA6). Kind of test: flow cytometry on HEK293-TMEM16A cells. (In general: In flow cytometry, cells or beads pass a laser one at a time.)
A further test addresses SP31 ab64085. The test can be described thus: peptide blocking of SP31 ab64085, western blot of TMEM16A.
For test [2], the target named is peptide 45 (cyclic, flanked by cysteines, second library) (human). Kind of test: peptide microarray (RepliTope), cyclic peptide.
Test [3] concerns the target peptide 46 (cyclic, flanked by cysteines, second library) (human). Kind of test: peptide microarray (RepliTope), cyclic peptide.
The target in test [4] is peptide 44 (cyclic, flanked by cysteines, second library) (human). Kind of test: peptide microarray (RepliTope), cyclic peptide.
Test [5] deals with T1, peptide 44 (linear 15-mer of the ECD1-3 library) (human).
T1 sequence (peptide): VQISRYKDYREPPWS
The test can be described thus: peptide microarray (RepliTope), linear 15-mer.

For test [6], the target named is T2, peptide 46 (linear 15-mer of the ECD1-3 library) (human).
T2 sequence (peptide): KDYREPPWSENKYDI
The test can be described thus: peptide microarray (RepliTope), linear 15-mer.

For test [7], the target named is T3, peptide 45 (linear 15-mer of the ECD1-3 library) (human).
T3 sequence (peptide): SRYKDYREPPWSENK
Kind of test: peptide microarray (RepliTope), linear 15-mer.

Sequence of UniProt Q5XXA6 (Q5XXA6 whole entry, the tested form may be a part): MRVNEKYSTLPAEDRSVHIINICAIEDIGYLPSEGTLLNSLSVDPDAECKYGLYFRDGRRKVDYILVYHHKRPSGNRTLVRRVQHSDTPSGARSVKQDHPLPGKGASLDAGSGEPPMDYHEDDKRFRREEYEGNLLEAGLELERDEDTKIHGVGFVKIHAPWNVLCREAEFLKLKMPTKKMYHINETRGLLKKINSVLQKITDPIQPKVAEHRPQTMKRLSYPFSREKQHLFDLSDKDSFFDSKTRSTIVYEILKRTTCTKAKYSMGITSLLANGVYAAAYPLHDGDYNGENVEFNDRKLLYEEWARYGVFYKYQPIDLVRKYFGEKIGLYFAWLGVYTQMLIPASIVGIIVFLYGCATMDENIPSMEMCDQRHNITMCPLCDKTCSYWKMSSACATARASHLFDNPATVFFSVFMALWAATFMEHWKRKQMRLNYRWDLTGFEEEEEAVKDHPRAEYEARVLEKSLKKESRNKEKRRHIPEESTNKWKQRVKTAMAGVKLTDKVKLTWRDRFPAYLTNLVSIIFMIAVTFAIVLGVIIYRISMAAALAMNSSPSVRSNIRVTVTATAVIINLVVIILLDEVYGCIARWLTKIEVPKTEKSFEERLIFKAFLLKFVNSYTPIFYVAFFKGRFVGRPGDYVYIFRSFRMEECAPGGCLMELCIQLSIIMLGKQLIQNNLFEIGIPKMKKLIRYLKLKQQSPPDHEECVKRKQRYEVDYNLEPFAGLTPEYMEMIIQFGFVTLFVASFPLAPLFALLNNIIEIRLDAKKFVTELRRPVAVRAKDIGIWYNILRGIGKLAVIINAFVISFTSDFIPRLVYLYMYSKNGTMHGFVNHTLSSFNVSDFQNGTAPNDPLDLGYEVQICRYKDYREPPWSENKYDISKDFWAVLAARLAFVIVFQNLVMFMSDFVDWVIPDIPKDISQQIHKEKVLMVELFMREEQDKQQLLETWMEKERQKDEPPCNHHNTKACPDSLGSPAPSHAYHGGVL

For “isotype control antibody (flow cytometry with 12E11)”, in test [1], the median fluorescence intensity worked out at 93.

B1: Peptide #2 (peptide)
peptide: DHEECVKRKQRYEVDYNLE
B1: in the test with SP31 ab64085, the peptide concentration at which pre-incubation blocked the western blot signal came to 0.01 µg/mL.

B2: 12E11 (antibody, V domains shown)
VH: QVQLKESGPGLVQPSQTLTLTCTVSGFSLSNYDMHWVRQSPGKGLDWMGVIWGNGKTQYNSGLTSRLSISRDTSKSQVFLKMNSLQTEDTAIYFCTRSGYYYDGSYYSLFDYWGQGVMVTVSS
VL: DVVLTQTPPTLSATIGQSVSISCRSSQSLLHSNGNTYLNWLLQRPGQPPQLLIYLVSRLESGVPNRFSGSGSGTDFTLKISGVEAEDLGVYYCVQSTHAPAFGGGTKLELK
As for B2, the signal over background signal (after subtraction of the signals of the unrelated antibody) in test [2] is over 3 times; in test [3] it was over 3 times; in test [4] it was over 3 times; in test [5] it was 3 times; in test [6], over 3 times; in test [7] it was over 3 times. The signal (AU, arbitrary unit) in test [3] and in test [6] was 15000 AU each time.

These data come from patent publication WO2014084859A1.
